Protein production data for 20 sequences are collected here from a protein production outcome set (Wang et al. 2014).

The data set is described as follows: label from the status in PepcDB records.
Take “MMTCDEIRLPKPPRLQPFLFLLRNDSLSKYSQPPRFDLARILFSLVFITIMIIACFWVVQPFILGFAWACMVVIATWPMLIKFQALLWGRRSLAVLVMTLLLILLFVVPIAVLVSSVIDNSSALMSWGSRQENLSPPTLEWLTSIPLVGEKLFNSWQALLQSGGSGLFAKVQPYFGKTATWLVAQAAHVGRFLMHCSLMLIFSALLYYKGEAVAKAVRHFAIRLGRERGDAAVILAAQSIRAVALGVVVTAIVQSVLGGIGLGLSGIPYTTLLTVLMFLCCLAQLGPLLVLIPAIIWLYWTGDNTWGTILLVWSCVVGTIDNVIRPMLIRMGADLPMLLILSGVIGGLLAFGMIGLFIGPVVLAVSYRLLFAWMREIPEPQNLLSVNTTKTPNKES”: the protein production entry is recorded as “failed”.
With “MLPDDVNQADVLADVTAAFYRYEKALTGNDVAVLDELFWHDEKTVRYGAGENLYGIEEIRAFRLARPSAGLDRALRNTVITTYGHDMAVASTEFTRTGSTKIGRQMQTWVKMPEGWRIVAAHVSLMSE” the entry was “not failed”; with “MGGHPQLRLVKALLLLGLNPVSASLQDQHCESLSLASNISGLQCNASVDLIGTCWPRSPAGQLVVRPCPAFFYGVRYNTTNNGYRECLANGSWAARVNYSECQEILNEEKKSKVHYHVAVIINYLGHCISLVALLVAFVLFLRLRPGCTHWGDQADGALEVGAPWSGAPFQVRRSIRCLRNIIHWNLISAFILRNATWFVVQLTMSPEVHQSNVGWCRLVTAAYNYFHVTNFFWMFGEGCYLHTAIVLTYSTDRLRKWMFICIGWGVPFPIIVAWAIGKLYYDNEKCWFGKRPGVYTDYIYQGPMILVLLINFIFLFNIVRILMTKLRASTTSETIQYRKAVKATLVLLPLLGITYMLFFVNPGEDEVSRVVFIYFNSFLESFQGFFVSVFYCFLNSEVRSAIRKRWHRWQDKHSIRARVARAMSIPTSPTRVSFHSIKQSTAV”, “failed”; with “NNDDDGTNKAQEIAGKYEGYSIGNCAMFTDYVMGEKSVATIVPNEDGTINVTYDSGSGEFKLNNIKVTSKTFEGSGQVELSMNDKPAGAKDFTLTGSIDEQQKLTLKVNVPSVMGGLTIEFIQGTLPISYHVSGTYNKEANLSVSVGSTTYPDITDCKVSIKRSSDDTVELTLKGLSNLNSSQTGRAMNLGDFTVTDVKVTSTDNSIFKIEGSINTTDTNNTPITGTLSGTVSNSETNITFTFKPGAMPIDITAMFKGKK”, “not failed”.
In the case of “MLKEILSSALLMLIMIDPSDKILLVSLLREDFHIEDVKSLIIRANLIGFILLLLFAVAGKIILQDIFHIELDALRVAGGFVLFKIGLEALEGGGMVTIKREKNILALAAVPVATPLIAGPAAITAAITLTAEHGIIVSIVGTLIAIAITAALMMIALYLMRGISKTALSVTIRIIGLFIMAIGAQMMITGAGGIVLNLIKGA” it was “failed”; in that of “MELPVVVQQALGDNAPGVSFRSVSQIDTGHLLRMVLLSDDQGNLQAICRRNDMLDLEALNKRLGRDLRMMQRREQVRVRQKAGLQELPALPSLTGWPTVVDRRVDELEAVALELGEQDLGLMMPAEDFRQLTAKAARHDFAVDTANISVNLDNHAADRDQLHSAIKRFTGLRIQQRLEDTLELPPLPETAQRIIHLRVNPNAVMGDLVDVVESDPSLAAQVVSWASSSFYAAAGRVHSVHDAVSRVLGFDLVMNLAMGLALGRALKHPQDHPDGYVDYWQQAIWQAQSAGILASMMPRGQRPLFGLAYLAGLLHNFGHLVLAQVFPPHFKLVCRSLEVSPHIDSSVIEHYLLGITREQIAAQLMENWGMPDEVTLAIRYQKNPAYDGPHNVYARLLWLGRQLLTERGVALGAGESATQAVYDELGLDRELVQEQFDELVRRKDSIMAMAGMMSQGG”, “not failed”; in that of “IRQAARGDAERGLGRRRLMQALDGMEAGCALLDGRGSLQEASHGLCRLLGRGRADLLGMNVADVCAPEDLSRLNAALACGGRMQRLRLRLMDGDGRAVDCELVLTPQEESMDGAAWLLQAED”, “failed”.
Consider “MTQLDTWLANTKPLIPVIVIDDLVHAIPMAKALVAGGVHLLEVTLRTEAGLAAISAIKKAVPEAIVGAGTVCTADDFQKAIDAGAQFIVSPGLTPELIEKAKQVKLDGQWQGVFLPGVATASEVMIAAQAGITQLKCFPASAIGGAKLLKAWSGPFPDIQFCPTGGISKDNYKEYLGLPNVICAGGSWLTESKLLIEGDWNEVTRRASEIVKLSDI”, for which the protein production result is listed as “not failed”.
For “MNLFGQKDRGNHVSGVDRGKVIMYGLSTCVWCKKTKKLLTDLGVDFDYVYVDRLEGKEEEEAVEEVRRFNPSVSFPTTIINDEKAIVGFKEKEIRESLGF”, the protein production result is listed as “not failed”.
Consider “EKGDWAQFGRYAEANKTVKVPSNVVFMGNSITDGWWPADSTFFIRNNFVDRGISGQTTSEMLVRFRQDVINLKPKAVVILAGINDIAHNNGVIALENVFGNLVSMAELAKANHIKVIFCSVLPAYDFPWRPGMQPADKVIQLNKWIKEYADKNGLTYVDYHSAMKDERNGLPANLSKDGVHPTLEGYKIMEKIVLEAIHKTVK”, for which the protein production result was “not failed”.
For “MLLKILVKLIILDSSCSFLERFKLIIDCYTNKDIPDIDRQLPIWMLWRIWKSRNLSVYQHKSSTWREDFIKTVNDATEWALVWTIDSTTNIQTRQVQSRTHHSAWTRPKEDFVKCNFDCKFSKNNNVSQAGRSKGQHCSMSMEAELQALVMAMQHVWSKGYKKVIFEGDNLRLSSFLRKIKPTSKFTTGSEKIIIRKKGLAMLNSIGQEEKTTK”, the protein production entry is “failed”.
For “MTTETIQSNANLAPLPPHVPEHLVFDFDMYNPSNLSAGVQEAWAVLQESNVPDLVWTRCNGGHWIATRGQLIREAYEDYRHFSSECPFIPREAGEAYDFIPTSMDPPEQRQFRALANQVVGMPVVDKLENRIQELACSLIESLRPQGQCNFTEDYAEPFPIRIFMLLAGLPEEDIPHLKYLTDQMTRPDGSMTFAEAKEALYDYLIPIIEQRRQKPGTDAISIVANGQVNGRPITSDEAKRMCGLLLVGGLDTVVNFLSFSMEFLAKSPEHRQELIERPERIPAACEELLRRFSLVADGRILTSDYEFHGVQLKKGDQILLPQMLSGLDERENACPMHVDFSRQKVSHTTFGHGSHLCLGQHLARREIIVTLKEWLTRIPDFSIAPGAQIQHKSGIVSGVQALPLVWDPATTKAV”, the protein production result is “not failed”.
As to “MRGILRMTVLAAAVFGVAGNALAEDWKLAKDEDGVKVYLSSVQGSKYKAYRGVTDIKADVATIEALQEDVKGSCKWIHACAEMKLLKQEGADAWTYSKIDMPWPVTGRDVVIHVTTEKTADGTVIRHLKADPTYIPEEKGQIRVPKLVGEWKLQPKGQGVTEVTYQVETEPGGSIPSWLANSFVVDAPLNTLKGLRSAAEKR”, the protein production entry is given as “failed”.
In the case of “MGIHAKLETVQLPLLVSCLFPPLTMPAKDVQICPIAVDTTVFRSRTWDRLKFEIEYGLQRGTTANSYLISADKIALFDPPGESFTDNFVGTLIQRLDLNSLDYVILGHVNANRAHTLKLLLSLAPQATIICSNPAAQNLEKLLADAEVNNPIQVMKGNDHLDLGRGHELTFIPTPSPRYPGQLCTYDPRTEILFTDKLFGAHVCGDQVFDEGWTIYQEDRRYYFDCLLAPAAAQVSAALNKLEAYPAQTYAPSHGPLVRYGLRELTRNYQQWLSEQQAQALNVALIYASAYGNTSTLAQAIARGITKAGVAVTAINAETSNAEEIKEAIGKSAGFIFGSPTLGGHAPTPIQTALGITLANASKTQLCGVFGSFGWSGEAIDMLENKFRDAGFSFGFDTIRVKFKPTDQTLKMCEEAGTDFAQALKKAEKRRQPKSALPESESARTEQALGRLVGSLCVVTAQQGELSSAMLASWVSQATFSPPGLTVAVAKERAIESLLHKNSCFVLNILQEGNHLGLMKHFLKPFAPGGDRFADVATETAENGAPILTESLAYLECRVQQRLECGDHWVLYAVTDRGALLKDGVTAVHHRKSGDHY”, the protein production entry is recorded as “failed”.
Take “MAEKKWFDKVLSKWQYEPIQVFMRHLQSAEMDLSAIAVAYYLILTAFPLIVIAANIFPYLNIDIADLLRLMKQNLPKDIFRPASAIVENIFSKPSGSVLGVATLTGLWTMSRSLTSLQKAINKAYGASQHRDFFIGHLVGLLTSLIILFLLAFALIFSIFSKAAIQVLDKHYHLSDNITTIFLLLIQPITVLIIFVGLMLLYFLLPNVKIKKIRYILPGTLFTSFVMTFLSNLVGNYVVYNVERMVDIKMFGSVMIFIIMLWFIFLARILILGAIFNATYQEMSLGKLEGRSGDMIAILKKTLGNDSDLSPSQSIEDSHTD”: the protein production result is on record as “failed”.
As for “GLQAEWMQMSSLGTVDAPNFIVGNPWDDKLIFKLLSGLSKPVSSYPNTFEWQCKLPAIKPKTEFQLGSKLVYVHHLLGEGAFAQVYEATQGDLNDAKNKQKFVLKVQKPANPWEFYIGTQLMERLKPSMQHMFMKFYSAHLFQNGSVLVGELYSYGTLLNAINLYKNTPEKVMPQGLVISFAMRMLYMIEQVHDCEIIHGDIKPDNFILGNGFLEQDDEDDLSAGLALIDLGQSIDMKLFPKGTIFTAKCETSGFQCVEMLSNKPWNYQIDYFGVAATVYCMLFGTYMKVKNEGGECKPEGLFRRLPHLDMWNEFFHVMLNIPDCHHLPSLDLLRQKLKKVFQQHYTNKIRALRNRLIVLLLECKRSRK”, the protein production entry was “failed”.
For the sequence “MARQLDEQIAGRFPVGQRLRVLDVGMGQGTQALRLARAGHQVTGVEQDATMIAVARETLAAEPEGIRSRMRLVQSDGRDTGVHFLPGSFDVVLCHGVLMYVEDPDALLAGLARMLAPGGLLSLLVRNADALAMRPGLAGDWASALTSFDTTAYTNRLGLDVRADRLDALTSTLAGIGAPLHAWYGVRVFTDTAADGAELPADVETLLAAEERAGRTDPYRQVAALLHLCGVRGGGAP”, the protein production entry is listed as “failed”.
Turning to “MNYKKHRGETLFKRWFLNNRFSIVLLNILLFFLIIWVFNKISFVLNPAWVFFSAILPPLLLALIQYYIMNPVVDWFEKKFRVPRVLTIIVLFLFVVIAMIWIINILVPIAQHQINSLVKNWPHIWNDAVNATQNALRDPRLHSVKGSIQGMIDDTQKTLFKSGQNTVNSTLGNISSAVSIITMIVMTLLTAPFILFFMLKDGHQLRPYITKFVPETWQQSFSKLLYDINYAVASYIRGQITVAFWVGVMFTIGYIIIGLPYGLALAILAGFMNLIPYFGTPLALIPVIVISIMTSGSMLVKVLIVFAIEQTIETRILSPLVMGNKMQMHPVTTILLLIGASSVWGLWGVIFGIPIYAVLKIIVSRVYNYYRRESDIFSNEDAASLTTGDADESKK”, the protein production result was “failed”.
For “MEIFELILLMLSAVFLSNVLSRFLPSIAVPLIQVVLGIILAIPLGDHTMDLNPELFLLLFMAPILFNDGASTDKKSLWKNRKAILSLSIGLVFVTVGVLGAFIHYLIPAIPFAAAFALAAALAPTDAVAVGALAEKVRVPHKIMHILEGESLINDASGLVSFQFAVLALVTGTFSFMSAGTSFLLLSLGGIALGAILSLLKIMLMRGLRQLGIENMTSFMLMEILLPFLIFMVAEKVGVNGILAVVSGGMVHSFSYKGLNPEIAQLNLLSKNTWSVIIFSLNGLVFILLGTQLPQILMTIWQDANIQKGMLFVYIIGITFLLLGLRFLWILFFRNYEENPKVDLVSRLKNTFLYTVAGVRGTITLVSALSLPFVLGNGNAFPERDLLIFIAAGVIITTLLLANFTLPLFADKKDKVTADHTTDIVLLRDIVQQLQAYKTDENAVEMNKVLNMYNNRIFSLMEHKEVNATEKELRRLTQEWQLENTRRLVFERKIDTGVGLSHMMRLGKRLYVQTRAEKYRARMRYRQLLSHRFRDFRFVPLTFEERRKEIAKLQNENNLFVMQKLQDLDSNEYNPEIISLYLMNFERALGRGKNKKESNDEALQTTIDLASQIERETIQRYFEKGTITRKEMKVYRDNLLAIEANMQLEF”, the protein production entry was “failed”.
Consider “MGISNIKQLYSKWKSLQPLKPEDLKRWNDKFKLEFNYNSNHLEGNTLTYGQTKLLLMFGETSGNASLKDYEEMKAHNVGLEMIKQEAQDKERPLTESFIRELNRTILVQDYWKNAKTPDGQDIRMQIKVGEYKSRPNSVLTATGEVFSYASPEETPAFMTSLVDWYNLEADKGILTPVELAALLHYRYIRIHPFEDGNGRIARLLVNFVLHRYGYPMIVIHSEDKSNYLNILHQCDVEAGLTPSDGANATLNDILPFVNYLSSCLIRSLTLAIKAAKGESIEEEGDFDKK”, for which the protein production entry was “not failed”.
